Experimental data published in US6566077B1, “Peptide useful as a ligand” (Tecnogen S.C.p.A., priority 1995, dated 2003).
No end group written: not given here.

Experiments:
[1] = molecular target: T1, albumin (Oryctolagus cuniculus, UniProt P49065); test: Affinity chromatography of crude rabbit serum on a column of immobilized ligand: retention or carry-over of albumin; format: binding
T1 construct: tissue SIGMA R 9133; host or cells: crude rabbit serum
Description: (§1) In order to purify immunoglobulins, the column was equilibrated with a 25 mM BIS-TRIS buffer (SIGMA, Cat. B9754) pH 6.5, at a flow rate of 1 ml/min, while the eluent was monitored at 280 nm. One milliliter of crude rabbit serum (SIGMA Cat. No. R 9133) was then loaded on the column, and after elution of non retained material at the column void volume, the eluent was changed to 0.1 M acetic acid.
(§2) Material desorbed by such a treatment was collected and analyzed by electrophoretic analysis on a polyacrylamide gel.
(§3) The purification of rabbit immunoglobulins from crude serum by affinity chromatography is shown in FIG. 1 while the electrophoretic analysis of the collected fractions is shown in FIG. 2. […] Furthermore, in FIG. 2 are also shown the electrophoretic analyses corresponding to several rabbit immunoglobulins purifications obtained after equilibration of the affinity column with different buffers, namely 0.1 M ammonium acetate pH 5.7 (A), 0.1 M sodium phosphate pH 7.0 (B), or 0.1 M sodium phosphate pH 8.5 (C).
Indeed similar results were attained with other supports such as Protein-Pak (Waters, USA), Eupergit C30N (Sigma, USA) and Affi-Gel (Bio-Rad, USA).

[2] = system: rabbit immunoglobulins; test: Affinity chromatography of crude rabbit serum on a column of immobilized peptide, with polyacrylamide gel electrophoresis of the fractions; format: binding
Description: The peptide of formula (H-L-Arg-L-Thr-L-Tyr-)4-Lys2-Lys-Gly-OH (5 mg) was dissolved in 5 ml of 0.1 M sodium bicarbonate buffer pH 9.0 and then added to 1.2 g of activated resin CH-Sepharose 4B (Pharmacia, Uppsala, Sweden Cat. No. 17-0490-01), which is a chromatographic support for affinity chromatography preactivated for the direct coupling to peptides and proteins. The suspension was shaken for 24 h and the coupling level was monitored by taking aliquots of the reaction mixture at different times and subsequent RP-HPLC analysis.
Approximately 90% of initial peptide resulted covalently linked to the resin after 24 h. The derivatized resin was washed with 50 ml of 1 M TRIS pH 9.0 and then packed on a glass column (100×6.6 mm I.D.).
as §1, §2, §3

[3] = molecular target: albumin of crude rabbit serum (rabbit, UniProt P49065 25-608); test: affinity chromatography of crude rabbit serum on the peptide immobilised on CH-Sepharose 4B; SDS-PAGE of fractions
Chain of albumin of crude rabbit serum (P49065 25-608 limits assumed): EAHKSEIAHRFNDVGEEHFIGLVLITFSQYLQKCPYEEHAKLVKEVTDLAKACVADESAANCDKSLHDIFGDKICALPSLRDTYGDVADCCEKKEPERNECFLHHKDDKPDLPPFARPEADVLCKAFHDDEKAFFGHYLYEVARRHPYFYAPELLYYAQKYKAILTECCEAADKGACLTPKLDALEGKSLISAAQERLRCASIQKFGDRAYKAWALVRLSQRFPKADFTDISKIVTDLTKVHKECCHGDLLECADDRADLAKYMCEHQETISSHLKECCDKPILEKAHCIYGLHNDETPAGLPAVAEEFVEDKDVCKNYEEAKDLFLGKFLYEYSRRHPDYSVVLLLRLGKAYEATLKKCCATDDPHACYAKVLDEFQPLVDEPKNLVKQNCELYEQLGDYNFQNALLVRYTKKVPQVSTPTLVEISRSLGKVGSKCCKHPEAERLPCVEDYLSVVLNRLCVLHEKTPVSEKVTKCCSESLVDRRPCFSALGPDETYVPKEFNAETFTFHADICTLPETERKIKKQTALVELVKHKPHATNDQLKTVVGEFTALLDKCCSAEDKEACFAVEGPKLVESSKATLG

T1 sequence (P49065 25-608): as the sequence (P49065 25-608 limits assumed) above

(H-L-Arg-L-Thr-L-Tyr-)4-Lys2-Lys-Gly-OH (peptide H-Arg-Thr-Tyr; chain KKKG-OH; also: branched tetramer: four RTY arms on the alpha and epsilon amines of two Lys, which are attached to the alpha and epsilon amines of a central Lys followed by Gly)
retention of albumin by the column ([1]; 1 ml crude rabbit serum, 25 mM BIS-TRIS pH 6.5, peptide on CH-Sepharose 4B): albumin was not retained
column selectivity compared with immobilized protein A columns ([1]; same serum, columns of the same dimensions): superior to that of columns with immobilized protein A
purification of immunoglobulins from contaminants after equilibration with different buffers ([2]; 0.1 M ammonium acetate pH 5.7, 0.1 M sodium phosphate pH 7.0 or pH 8.5, desorbed with 0.1 M acetic acid): optimal purification of immunoglobulins from contaminants was achieved
retention of the immunoglobulin fraction from crude serum by the column ([2]; 1 ml crude rabbit serum, 25 mM BIS-TRIS pH 6.5, elution with 0.1 M acetic acid, peptide on CH-Sepharose 4B): able to retain the immunoglobulin fraction from the crude serum
purification capability of the column ([2]; immunoglobulins purified from 0.5 ml, 1 ml and 1.5 ml of serum): remarkable purification capability

protein A: protein obtained from Staphylococcus aureus, binds specifically to the constant portion of immunoglobulins; comparator affinity ligand [reference compound]
albumin in the purified fractions ([1]; same serum, immobilized protein A column of the same dimensions): always comprising traces of albumin

B1: (H-L-Arg-L-Thr-L-Tyr-)4-Lys2-Lys-Gly-OH (peptide)
peptide: H-Arg-Thr-Tyr
chain: KKKG-OH
modifications: also: branched tetramer: four RTY arms on the alpha and epsilon amines of two Lys, which are attached to the alpha and epsilon amines of a central Lys followed by Gly
notes: Synthetic branched tetramer; also called (H2N-Arg-Thr-Tyr-CO)4-Lys2Lys-Gly-OH; tetrameric tripeptide (H-L-Arg-L-Thr-L-Tyr-)4-Lys2-Lys-COOH
binding result [3]: no binding
